{"source": "patent US20200024330A1", "test_in_all_cases": "cell-based or functional assay", "key": {"[1]": {"target": "HIV-1 93IN905 envelope glycoprotein (Env) on pseudovirus (HIV-1)"}, "[2]": {"target": "HIV-1 APV13 envelope glycoprotein (Env) on pseudovirus (HIV-1)"}, "[3]": {"target": "HIV-1 MGRM-C-028 envelope glycoprotein (Env) on pseudovirus (HIV-1)"}, "[4]": {"target": "HIV-1 94UG103 envelope glycoprotein (Env) on pseudovirus (HIV-1)"}, "[5]": {"target": "HIV-1 MGRM-A-010 envelope glycoprotein (Env) on pseudovirus (HIV-1)"}, "[6]": {"target": "HIV-1 92BR020 envelope glycoprotein (Env) on pseudovirus (HIV-1)"}, "[7]": {"target": "aMLV envelope protein on pseudovirus (negative control virus)"}, "[8]": {"target": "HIV-1 NL43 envelope glycoprotein (Env) on pseudovirus (HIV-1)"}, "[9]": {"target": "HIV-1 92UG024 envelope glycoprotein (Env) on pseudovirus (HIV-1)"}, "[10]": {"target": "HIV-1 92RW020 envelope glycoprotein (Env) on pseudovirus (HIV-1)"}, "[11]": {"target": "HIV-1 JRFL envelope glycoprotein (Env) on pseudovirus (HIV-1)"}, "[12]": {"target": "HIV-1 APV17 envelope glycoprotein (Env) on pseudovirus (HIV-1)"}, "[13]": {"target": "HIV-1 MGRM-D-001 envelope glycoprotein (Env) on pseudovirus (HIV-1)"}, "[14]": {"target": "HIV-1 MGRM-AG-005 envelope glycoprotein (Env) on pseudovirus (HIV-1)"}, "[15]": {"target": "HIV-1 MGRM-C-026 envelope glycoprotein (Env) on pseudovirus (HIV-1)"}, "[16]": {"target": "HIV-1 92TH021 envelope glycoprotein (Env) on pseudovirus (HIV-1)"}, "[17]": {"target": "HIV-1 MGRM-D-018 envelope glycoprotein (Env) on pseudovirus (HIV-1)"}, "[18]": {"target": "HIV-1 CMU02 envelope glycoprotein (Env) on pseudovirus (HIV-1)"}, "[19]": {"target": "HIV-1 93UG077 envelope glycoprotein (Env) on pseudovirus (HIV-1)"}, "[20]": {"target": "HIV-1 92UG005 envelope glycoprotein (Env) on pseudovirus (HIV-1)"}, "[21]": {"target": "HIV-1 JRCSF envelope glycoprotein (Env) on pseudovirus (HIV-1) (UniProt P20871)"}, "[22]": {"target": "HIV-1 MGRM-C-027 envelope glycoprotein (Env) on pseudovirus (HIV-1)"}, "[23]": {"target": "HIV-1 APV6 envelope glycoprotein (Env) on pseudovirus (HIV-1)"}}}
{"binder": "PGT-136 (5329_C19; 5366_P21) human monoclonal anti-HIV antibody (antibody, V domains shown) VH: QLQLQESGPGLVKPSETLSLTCTVSGGSMRGTDWGENDFHYGWIRQSSAKGLEWIGSIHWRGRTTHYKTSFRSRATLSIDTSNNRFSLTFSFVTAADTAVYYCARHKYHDIFRVVPVAGWFDPWGQGLLVTVSS VL: EIVMTQSPPTLSVSPGETATLSCRASQNVKNNLAWYQLKPGQAPRLLIFDASSRAGGIPDRFSGSGYGTDFTLTVNSVQSEDFGDYFCQQYEEWPRTFGQGTKVDIK", "values": [{"measurement": "neutralization IC50", "setting": "[1]", "value": 0.0135, "unit": "µg/mL"}, {"measurement": "neutralization IC80", "setting": "[1]", "value": 0.0623, "unit": "µg/mL"}, {"measurement": "neutralization IC90", "setting": "[1]", "value": 0.156, "unit": "µg/mL"}, {"measurement": "neutralization IC95", "setting": "[1]", "value": 0.379, "unit": "µg/mL"}, {"measurement": "neutralization IC50", "setting": "[2]", "value": "> 10", "unit": "µg/mL"}, {"measurement": "neutralization IC80", "setting": "[2]", "value": "> 10", "unit": "µg/mL"}, {"measurement": "neutralization IC90", "setting": "[2]", "value": "> 10", "unit": "µg/mL"}, {"measurement": "neutralization IC95", "setting": "[2]", "value": "> 10", "unit": "µg/mL"}, {"measurement": "neutralization IC50", "setting": "[3]", "value": "> 10", "unit": "µg/mL"}, {"measurement": "neutralization IC80", "setting": "[3]", "value": "> 10", "unit": "µg/mL"}, {"measurement": "neutralization IC90", "setting": "[3]", "value": "> 10", "unit": "µg/mL"}, {"measurement": "neutralization IC95", "setting": "[3]", "value": "> 10", "unit": "µg/mL"}, {"measurement": "neutralization IC50", "setting": "[4]", "value": "> 10", "unit": "µg/mL"}, {"measurement": "neutralization IC80", "setting": "[4]", "value": "> 10", "unit": "µg/mL"}, {"measurement": "neutralization IC90", "setting": "[4]", "value": "> 10", "unit": "µg/mL"}, {"measurement": "neutralization IC95", "setting": "[4]", "value": "> 10", "unit": "µg/mL"}, {"measurement": "neutralization IC50", "setting": "[5]", "value": "> 10", "unit": "µg/mL"}, {"measurement": "neutralization IC80", "setting": "[5]", "value": "> 10", "unit": "µg/mL"}, {"measurement": "neutralization IC90", "setting": "[5]", "value": "> 10", "unit": "µg/mL"}, {"measurement": "neutralization IC95", "setting": "[5]", "value": "> 10", "unit": "µg/mL"}, {"measurement": "neutralization IC50", "setting": "[6]", "value": "> 10", "unit": "µg/mL"}, {"measurement": "neutralization IC80", "setting": "[6]", "value": "> 10", "unit": "µg/mL"}, {"measurement": "neutralization IC90", "setting": "[6]", "value": "> 10", "unit": "µg/mL"}, {"measurement": "neutralization IC95", "setting": "[6]", "value": "> 10", "unit": "µg/mL"}, {"measurement": "neutralization IC50", "setting": "[7]", "value": "> 10", "unit": "µg/mL"}, {"measurement": "neutralization IC80", "setting": "[7]", "value": "> 10", "unit": "µg/mL"}, {"measurement": "neutralization IC90", "setting": "[7]", "value": "> 10", "unit": "µg/mL"}, {"measurement": "neutralization IC95", "setting": "[7]", "value": "> 10", "unit": "µg/mL"}, {"measurement": "neutralization IC50", "setting": "[8]", "value": "> 10", "unit": "µg/mL"}, {"measurement": "neutralization IC80", "setting": "[8]", "value": "> 10", "unit": "µg/mL"}, {"measurement": "neutralization IC90", "setting": "[8]", "value": "> 10", "unit": "µg/mL"}, {"measurement": "neutralization IC95", "setting": "[8]", "value": "> 10", "unit": "µg/mL"}, {"measurement": "neutralization IC50", "setting": "[9]", "value": 0.0915, "unit": "µg/mL"}, {"measurement": "neutralization IC80", "setting": "[9]", "value": 0.619, "unit": "µg/mL"}, {"measurement": "neutralization IC90", "setting": "[9]", "value": 1.96, "unit": "µg/mL"}, {"measurement": "neutralization IC95", "setting": "[9]", "value": 5.97, "unit": "µg/mL"}, {"measurement": "neutralization IC50", "setting": "[10]", "value": 0.738, "unit": "µg/mL"}, {"measurement": "neutralization IC80", "setting": "[10]", "value": "> 10", "unit": "µg/mL"}, {"measurement": "neutralization IC90", "setting": "[10]", "value": "> 10", "unit": "µg/mL"}, {"measurement": "neutralization IC95", "setting": "[10]", "value": "> 10", "unit": "µg/mL"}, {"measurement": "neutralization IC50", "setting": "[11]", "value": "> 10", "unit": "µg/mL"}, {"measurement": "neutralization IC80", "setting": "[11]", "value": "> 10", "unit": "µg/mL"}, {"measurement": "neutralization IC90", "setting": "[11]", "value": "> 10", "unit": "µg/mL"}, {"measurement": "neutralization IC95", "setting": "[11]", "value": "> 10", "unit": "µg/mL"}, {"measurement": "neutralization IC50", "setting": "[12]", "value": "> 10", "unit": "µg/mL"}, {"measurement": "neutralization IC80", "setting": "[12]", "value": "> 10", "unit": "µg/mL"}, {"measurement": "neutralization IC90", "setting": "[12]", "value": "> 10", "unit": "µg/mL"}, {"measurement": "neutralization IC95", "setting": "[12]", "value": "> 10", "unit": "µg/mL"}, {"measurement": "neutralization IC50", "setting": "[13]", "value": "> 10", "unit": "µg/mL"}, {"measurement": "neutralization IC80", "setting": "[13]", "value": "> 10", "unit": "µg/mL"}, {"measurement": "neutralization IC90", "setting": "[13]", "value": "> 10", "unit": "µg/mL"}, {"measurement": "neutralization IC95", "setting": "[13]", "value": "> 10", "unit": "µg/mL"}, {"measurement": "neutralization IC50", "setting": "[14]", "value": "> 10", "unit": "µg/mL"}, {"measurement": "neutralization IC80", "setting": "[14]", "value": "> 10", "unit": "µg/mL"}, {"measurement": "neutralization IC90", "setting": "[14]", "value": "> 10", "unit": "µg/mL"}, {"measurement": "neutralization IC95", "setting": "[14]", "value": "> 10", "unit": "µg/mL"}, {"measurement": "neutralization IC50", "setting": "[15]", "value": 0.0065, "unit": "µg/mL"}, {"measurement": "neutralization IC80", "setting": "[15]", "value": 0.0285, "unit": "µg/mL"}, {"measurement": "neutralization IC90", "setting": "[15]", "value": 0.0687, "unit": "µg/mL"}, {"measurement": "neutralization IC95", "setting": "[15]", "value": 0.159, "unit": "µg/mL"}, {"measurement": "neutralization IC50", "setting": "[16]", "value": "> 10", "unit": "µg/mL"}, {"measurement": "neutralization IC80", "setting": "[16]", "value": "> 10", "unit": "µg/mL"}, {"measurement": "neutralization IC90", "setting": "[16]", "value": "> 10", "unit": "µg/mL"}, {"measurement": "neutralization IC95", "setting": "[16]", "value": "> 10", "unit": "µg/mL"}, {"measurement": "neutralization IC50", "setting": "[17]", "value": "> 10", "unit": "µg/mL"}, {"measurement": "neutralization IC80", "setting": "[17]", "value": "> 10", "unit": "µg/mL"}, {"measurement": "neutralization IC90", "setting": "[17]", "value": "> 10", "unit": "µg/mL"}, {"measurement": "neutralization IC95", "setting": "[17]", "value": "> 10", "unit": "µg/mL"}, {"measurement": "neutralization IC50", "setting": "[18]", "value": "> 10", "unit": "µg/mL"}, {"measurement": "neutralization IC80", "setting": "[18]", "value": "> 10", "unit": "µg/mL"}, {"measurement": "neutralization IC90", "setting": "[18]", "value": "> 10", "unit": "µg/mL"}, {"measurement": "neutralization IC95", "setting": "[18]", "value": "> 10", "unit": "µg/mL"}, {"measurement": "neutralization IC50", "setting": "[19]", "value": "> 10", "unit": "µg/mL"}, {"measurement": "neutralization IC80", "setting": "[19]", "value": "> 10", "unit": "µg/mL"}, {"measurement": "neutralization IC90", "setting": "[19]", "value": "> 10", "unit": "µg/mL"}, {"measurement": "neutralization IC95", "setting": "[19]", "value": "> 10", "unit": "µg/mL"}, {"measurement": "neutralization IC50", "setting": "[20]", "value": "> 10", "unit": "µg/mL"}, {"measurement": "neutralization IC80", "setting": "[20]", "value": "> 10", "unit": "µg/mL"}, {"measurement": "neutralization IC90", "setting": "[20]", "value": "> 10", "unit": "µg/mL"}, {"measurement": "neutralization IC95", "setting": "[20]", "value": "> 10", "unit": "µg/mL"}, {"measurement": "neutralization IC50", "setting": "[21]", "value": "> 10", "unit": "µg/mL"}, {"measurement": "neutralization IC80", "setting": "[21]", "value": "> 10", "unit": "µg/mL"}, {"measurement": "neutralization IC90", "setting": "[21]", "value": "> 10", "unit": "µg/mL"}, {"measurement": "neutralization IC95", "setting": "[21]", "value": "> 10", "unit": "µg/mL"}, {"measurement": "neutralization IC50", "setting": "[22]", "value": "> 10", "unit": "µg/mL"}, {"measurement": "neutralization IC80", "setting": "[22]", "value": "> 10", "unit": "µg/mL"}, {"measurement": "neutralization IC90", "setting": "[22]", "value": "> 10", "unit": "µg/mL"}, {"measurement": "neutralization IC95", "setting": "[22]", "value": "> 10", "unit": "µg/mL"}, {"measurement": "neutralization IC50", "setting": "[23]", "value": "> 10", "unit": "µg/mL"}, {"measurement": "neutralization IC80", "setting": "[23]", "value": "> 10", "unit": "µg/mL"}, {"measurement": "neutralization IC90", "setting": "[23]", "value": "> 10", "unit": "µg/mL"}, {"measurement": "neutralization IC95", "setting": "[23]", "value": "> 10", "unit": "µg/mL"}]}
